Test: soluble on expression in E. coli; label from the status in PepcDB or PDB records
For “MSQLMNAHDRRNEPAPNAPPEFQLQNRTRPAPTPIEYITLSSDDEIEVIPPPPKRAKMMEEQKPKDLLENPQLPEVPSSSASFVIPQIVVDNEEVPEDPRMKTPSPIQGASVAMPVRARIQESPKVSRDPTPLSRASSVVIPEVPAVSEPEPLPVEVLAISIPTTSPDTAPSTSSSVETVESVTEVVAISSAEASSDAPARSPLKKKVANSVKPVVLPSRKSTRNKKDMNQIKEDEELVSNFNNGIGVISRGTIVPRGLSRTPFHFKKEATDDKAGKVKDMLKIDMQPVFTPAGHSSKDLIKRKARNSLEPSTSDADISFMKNERGKIRTGEKFQATIPDIEPSSTLTEYMDQEDKEEIFWETLDMDKDNLEESKKFHETLRNVYWRAIWRQFQGHIPFETALQHLMKNNLDFAQSLETIDENLKSLPQSFKEPCVAQVKIFDKLLQDKKTTRRQLQEKAMRNYHIAEVQQYHYRFRKFFKYQEKYGVVCNCAEKLCNNLKFEPRYGCTNCKKNVKSSSDHGATEKLCLICQTYQKLTGNVRPARNVEFCDDELEKIYHWSQKEEDLNRTLSREEFEELVREEKNKKWKNNDLSAEETAMLNQKELRIPNRRHRTHLSDQEKQARGEKICAQLQPYVLPHFSKCNCKRMGRSSWRCETEGKSSFSIQERKDYFREVRDCKGDLQQVARNLKVAPEVVRAFINIYGIEYDLEIYFPNKKLPNLIPIVYDIPPSNLPPIIPDGSSNSSSRDGSPYIPPEERSPKKRRSN”, the “soluble on expression in E. coli” value was “not soluble”.
In the case of “MSQLQEMMTVVSQREVAYNIFEMVLKGTLVDEMDLPGQFLHLAVPNGAMLLRRPISISSWDKRAKTCTILYRIGDETTGTYKLSKLESGAKVDVMGPLGNGFPVAEVTSTDKILIIGGGIGVPPLYELAKQLEKTGCQMTILLGFASENVKILENEFSNLKNVTLKIATDDGSYGTKGHVGMLMNEIDFEVDALYTCGAPAMLKAVAKKYDQLERLYISMESRMACGIGACYACVEHDKEDESHALKVCEDGPVFLGKQLSL”, the “soluble on expression in E. coli” value is reported as “soluble”.
With “MSQPIYKRILLKLSGEALQGEDGLGIDPAILDRMAVEIKELVEMGVEVSVVLGGGNLFRGAKLAKAGMNRVVGDHMGMLATVMNGLAMRDSLFRADVNAKLMSAFQLNGICDTYNWSEAIKMLREKRVVIFSAGTGNPFFTTDSTACLRGIEIEADVVLKATKVDGVYDCDPAKNPDAKLYKNLSYAEVIDKELKVMDLSAFTLARDHGMPIRVFNMGKPGALRQVVTGTEEGTTICLEHHHHHH” the “soluble on expression in E. coli” value was “not soluble”.
In the case of “MSQPLTTNSVLVEEAAADGDSSAAAPPLFDYHRIDQKLLQNIVYDALVWSTLNCLLVGDKSVQRSGRVPGVGLVHLPLSLLPGPFPESHWKQGCELAPIFNELVDRVSLDGKFLQESLSRTKNADEFTSRLLDIHSKMLQINKKEDIRMGIVRSDYMIDEKTKSLLQIEMNTISTSFALIGCLMTGLHKSLLSQYGKFLGLNSNRVPANNAVDQSAEALAKAWSEYNNPRAAILVVVQVEERNMYEQHYISALLREKHHIRSIRKTLTEIDQEGKILPDGTLSVDGQAISVVYFRAGYTPKDYPSESEWRARLLMEQSSAIKCPTISYHLVGTKKIQQELAKPGVLERFVENKDHIAKLRACFAGLWSLEDSDIVKKAIENPELFVMKPQREGGGNNIYGDELRETLLKLQEAGSQEDAAYILMQRIFPATSPAILVRDGNWDTGHVISEAGIFGTYLRNKDKIIINNESGYMVRTKISSSYEGGVLPGFGVVDTVYLT”, the “soluble on expression in E. coli” value is reported as “soluble”.
For “MSQQGLERRLLAGLQGLGLTINQAQRAVKHFGADALDRLEKDLFTLTEVEGIGFLTADKLWQARGGALDDPRRLTAAAVYALQLAGTQAGHSFLPRSRAEKGVVHYTRVTPGQARLAVETAVELGRLSEDDSPLFAAEAAATGEGRIYLPHVLRAEKKLASLIRTLLATPPADGAGNDDWAVPKKARKGLSEEQASVLDQLAGHRLVVLTGGPGTGKSTTTKAVADLAESLGLEVGLCAPTGKAARRLGEVTGRTASTVHRLLGYGPQGFRHNHLEPAPYDLLIVDEVSMMGDALMLSLLAAVPPGARVLLVGDTDQLPPVDAGLPLLALAQAAPTIKLTQVYRQAAKNPIIQAAHGLLHGEAPAWGDKRLNLTEIEPDGGARRVALMVRELGGPGAVQVLTPMRKGPLGMDHLNYHLQALFNPGEGGVRIAEGEARPGDTVVQTKNDYNNEIFNGTLGMVLKAEGARLTVDFDGNVVELTGAELFNLQLGYALTVHRAQGSEWGTVLGVLHEAHMPMLSRNLVYTALTRARDRFFSAGSASAWQIAAARQREARNTALLERIRAHLEHHHHHH”, the “soluble on expression in E. coli” value was “soluble”.
In the case of “MSQQKICFIGAGNMTRSIISGLIRSGYPASQVQATNPSQGKLDALATDFGVRVSQDNVSAAQDADVIILSVKPQLMEQVCQALQGIDMSNKLLITIAAGIKASRYSEYLAQPITLIRTMPNTPMQIGVGMTGLYAPQSLSDAQKAIAERLMSSGGEIVWVNEESDINQVIALAGSSPAYFFLLMESMIDAGKQMGMDEAKARSLVQQAALGAAMMAKQNPELTLGNLRENVTSKGGTTAQAIATFEAADLRGVVKKAMENCINRAEEMAKTF”, the “soluble on expression in E. coli” value is reported as “soluble”.
With “MSQRTSEENRYEQLHRFAAKIHSTMQIDDVLEEIICTLQNVYPAFTYHLLLSHDNHVCGNLPIKTLALDESEGQPAALRAFLTGQVQCEETAAPPRSVLYAPIKGVQAVYGVIQIIAPYAAPFPKREINFISLLAGTAGRALENAKLYEQSRRLEHHHHHH” the “soluble on expression in E. coli” value was “soluble”.
For “MSQSNTLTVQILDKEYCINCPDDERANLESAARYLDGKMREIRSSGKVIGADRVAVMAALNITHDLLHRKERLDQESSSTRERVRELLDRVDRALANPADAGEA”, the “soluble on expression in E. coli” value was “soluble”.
For “MSQTAAPLAQLNAMDTAQFVRTLGGIYEHSPWVAEQAAGQRPFASADALAAAMRRAVDGAGEGPQLKLVRAHPELAGKAAVRGELTAESTREQASAGLDQCSPEEFARLQALNARYNDKFGFPFILAVRGYDRHGIIDVFARRLENDRATELRASLEQIHRIAGFRLHDLISGKLAAALEHHHHHH”, the “soluble on expression in E. coli” value was “not soluble”.
In the case of “MSQTGEKGKFPDAAGYVGFANLPNQVHRKSVKKGFEFTLMVVGESGLGKSTLINSLFLTDLYPERYIPGAAEKIERTVQIEASTVEIEERGVKLRLTVVDTPGYGDAINSQDCFKTIIQYIDNQFERYLHDESGLNRRHIVDNRVHCCFYFISPFGHGLKPLDVEFMKAIHSKVNIVPVIAKADTLTLKERDRLKRRILDEISEHGIRIYQLPDADSDEDEEFKDFVPNRCIWSSLQFYQMHIIAITFIDIMFVFKKAAHVISTTIIMVKLNIKCQ”, the “soluble on expression in E. coli” value is reported as “not soluble”.
For “MSRAVTRSRLNSTTDQFMAEKINESDILERLNQTHTVRGFFITTVDVLTEAIDALMQRIFRKDNFAVKSVVEPLLHDTGPLGDLTVRLKLLFGLGVIPDEVFHDIEHLIKLRNQLNHDATEYQFTDPQILAPIKALNLVKKMGMLHLNVVEPDDDIDLSFYHLQLQRQQQVIKSGLSLAIIQICNALNK”, the “soluble on expression in E. coli” value was “not soluble”.
With “MSRIEAVFFDCDGTLVDSEVICSRAYVTMFQEFGITLDPEEVFKRFKGVKLYEIIDIVSLEHGVTLAKTEAEHVYRAEVARLFDSAIEGAGALLSAITAPMCVVSNGPNNKMQHSMGKLNMLHYFPDKLFSGYDIQRWKPDPALMFHAAKAMNVNVENCILVDDSVAGAQSGIDAGMEVFYFCADPHNKPIVHPKVTTFTHLSQLPELWKARGWDITA” the “soluble on expression in E. coli” value was “not soluble”.
With “MSRIGLQQLNNSARNSPFGSEKATGTKQIPEPLKLTAQLKKYQPITPSPLASATTITPVLSPFDVFCDDDQEAKNVETQMFEYGTVSTQTIINVPHVQPKITEADLTSEKPTVNYLRVMADRLQMDLDDEMDRNQRLVAELGDLDEKMRKIDDDTEILLEVLADIDEEQQTDEEIGTAQL” the “soluble on expression in E. coli” value was “not soluble”.
For “MSRKRTENGSESGPATSHVPVDRFGFLKQEHANSPERFSKSKTTSSTDHDREERKVRKWRKMIGVGGSDWKHYVRRKPNVVRRRIRKGIPDCLRGLVWQLISGSRDLLLMNPGVYEQLVIYETSASELDIIRDISRTFPSHVFFQKRHGPGQRSLYNVLKAYSVYDRDVGYVQGMGFIAGLLLLYMSEEDAFWLLVALLKGAVHAPMEGLYHAGLPLVQQYLFQLESLVKELIPKLGEHFTQEMINPSMYASQWFITVFSYSFPFPLALRIWDVFLSEGVKIVFKVGLALLKYCQDELVSKVTV”, the “soluble on expression in E. coli” value was “not soluble”.
